From patent publication US10689651B2, “Method of inhibiting macrophage activation using an inhibitor of PARP9” (THE BRIGHAM AND WOMEN'S HOSPITAL, INC., priority 2013, dated 2020)
Entries after “also recorded” stand apart in the source; their conditions may differ.

Biological target: T1, PARP14 (Homo sapiens, UniProt Q460N5)
T1 construct: purchased BPS Bioscience Inc
Assay: Ribosylation assay: PARP14-mediated ADP-ribosylation of STAT1α
Format: biochemical
Conditions: recombinant proteins; for PARP14-induced mono ADP-ribosylation at Glu657 and Glu705 of STAT1α: LC-MS/MS, MS1 AUC quantification
Source text: The high resolution/accuracy LTQ-Orbitrap Elite (Thermo Scientific) analyzed TMT peptide samples and the Q Exactive (Thermo Scientific) analyzed in vitro ribosylated peptides. Both mass spectrometers are fronted with a Nanospray FLEX ion source, and coupled to an Easy-nLC1000 HPLC pump (Thermo Scientific). The peptides were subjected to a dual column set-up: an Acclaim PepMap RSLC C18 trap column, 75 um×20 cm (50 um×15 cm on the Q Exactive); and an Acclaim PepMap RSLC C18 analytical column 75 um×250 mm (Thermo Scientific). For TMT analysis the analytical gradient was run at 250 nl/min from 10 to 30% Solvent B (acetonitrile/0.1% formic acid) for 90 minutes, followed by five minutes of 95% Solvent B. Solvent A was 0.1% formic acid. For ribosylated peptides the gradient was run at 250 nl/min from 5 to 28% Solvent B for 30 minutes, followed by five minutes of 95% Solvent B. All reagents were HPLC-grade. […] Unmodified forms were calculated by subtracting the mass of the ADP-ribose (541. 06 Da) from the observed precursor. Modified and unmodified m/z values and corresponding retention time windows were submitted to an inclusion list and analyzed in using the data-independent acquisition module of the Q Exactive (R=35 K).
Recombinant human PARP14 and PARP9 (BPS Bioscience Inc.) proteins, and BSA (Sigma-Aldrich) were incubated with recombinant human STAT1α (OriGene Technologies, Inc.) or STAT6 protein (Sino Biological Inc.) at a final concentration of 5 ng/μl in the presence of 100 μM β-Nicotinamide adenine dinucleotide hydrate (NAD; Sigma-Aldrich) or 6-biotin-17-NAD (Trevigen, Inc.) in 50 mM Tris-HCl buffer (pH 7.4) for 1 hour at room temperature. Ribosylation of STAT1α and STAT6 was detected by LC-MS/MS after trypsin digestion or Western blotting using Streptavidin-HRP (Abcam) after SDS-PAGE. Quantification of the relative abundances of ribosylated STAT1α peptides was completed by calculating the area under the curve (AUC) of the extracted ion chromatograms (XICs) of the monoisotopic peaks of the modified versus unmodified peptides. […]

T1 sequence (Q460N5 whole entry): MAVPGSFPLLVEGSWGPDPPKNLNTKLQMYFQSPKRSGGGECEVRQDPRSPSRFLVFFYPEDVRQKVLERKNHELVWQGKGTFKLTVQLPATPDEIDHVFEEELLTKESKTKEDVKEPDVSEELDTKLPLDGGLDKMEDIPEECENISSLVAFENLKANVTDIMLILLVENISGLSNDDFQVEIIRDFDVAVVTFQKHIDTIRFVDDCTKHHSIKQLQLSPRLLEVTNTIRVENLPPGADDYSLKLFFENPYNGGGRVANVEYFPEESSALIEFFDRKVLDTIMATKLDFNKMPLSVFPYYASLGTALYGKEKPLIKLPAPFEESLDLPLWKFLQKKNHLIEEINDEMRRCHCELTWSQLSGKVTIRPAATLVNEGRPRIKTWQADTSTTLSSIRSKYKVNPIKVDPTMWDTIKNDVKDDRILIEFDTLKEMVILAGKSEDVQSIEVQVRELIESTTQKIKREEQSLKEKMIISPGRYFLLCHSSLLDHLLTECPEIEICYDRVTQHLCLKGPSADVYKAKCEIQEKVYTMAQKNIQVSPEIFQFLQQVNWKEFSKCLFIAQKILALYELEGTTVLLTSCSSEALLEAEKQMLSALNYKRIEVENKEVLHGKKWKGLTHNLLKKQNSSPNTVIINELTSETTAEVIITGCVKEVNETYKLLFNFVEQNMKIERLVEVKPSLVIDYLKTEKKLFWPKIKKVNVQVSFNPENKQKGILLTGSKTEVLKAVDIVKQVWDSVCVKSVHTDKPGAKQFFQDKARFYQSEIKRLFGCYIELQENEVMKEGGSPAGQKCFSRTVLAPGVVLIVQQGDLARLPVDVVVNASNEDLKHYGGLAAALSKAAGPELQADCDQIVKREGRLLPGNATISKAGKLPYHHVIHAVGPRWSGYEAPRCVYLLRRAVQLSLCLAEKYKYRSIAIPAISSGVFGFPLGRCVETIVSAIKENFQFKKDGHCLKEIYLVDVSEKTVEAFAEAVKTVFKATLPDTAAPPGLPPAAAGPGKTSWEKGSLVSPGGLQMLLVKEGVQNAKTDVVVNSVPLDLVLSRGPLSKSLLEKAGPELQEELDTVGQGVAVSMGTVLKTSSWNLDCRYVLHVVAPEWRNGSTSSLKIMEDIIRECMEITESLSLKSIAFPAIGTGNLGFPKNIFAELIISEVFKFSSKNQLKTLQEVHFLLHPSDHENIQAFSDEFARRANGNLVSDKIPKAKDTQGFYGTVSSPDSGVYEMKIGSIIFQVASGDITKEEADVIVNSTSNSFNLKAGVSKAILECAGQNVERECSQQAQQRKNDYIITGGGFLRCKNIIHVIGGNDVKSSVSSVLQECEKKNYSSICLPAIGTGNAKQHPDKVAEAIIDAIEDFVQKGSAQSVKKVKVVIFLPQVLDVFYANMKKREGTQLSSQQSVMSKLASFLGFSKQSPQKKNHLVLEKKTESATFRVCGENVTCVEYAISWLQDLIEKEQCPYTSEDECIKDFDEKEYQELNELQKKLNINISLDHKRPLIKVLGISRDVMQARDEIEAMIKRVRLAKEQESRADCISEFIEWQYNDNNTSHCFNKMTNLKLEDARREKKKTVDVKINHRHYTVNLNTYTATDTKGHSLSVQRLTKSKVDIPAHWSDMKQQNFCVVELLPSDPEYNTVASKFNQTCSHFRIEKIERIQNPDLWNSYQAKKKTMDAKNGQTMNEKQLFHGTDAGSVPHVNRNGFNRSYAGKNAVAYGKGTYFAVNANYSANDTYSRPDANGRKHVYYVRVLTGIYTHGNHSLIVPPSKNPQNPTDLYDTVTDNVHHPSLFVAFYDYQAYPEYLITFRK

**Q.** How did the “PARP14-induced mono ADP-ribosylation at Glu657 and Glu705 of STAT1α” value turn out when “recombinant PARP9: Recombinant human PARP9 protein (BPS Bioscience Inc.) added to the PARP14 ribosylation assay” was run?
**A.** Its value is “inhibited”.

**Q.** And the “PARP14-induced mono ADP-ribosylation at Glu657 and Glu705 of STAT1α” value (listed as PARP9)?
**A.** The value was “inhibition”.

**Q.** And the “ADP-ribosylation of STAT1α by PARP14” value (protein ribosylation assay (Western blot))?
**A.** Its value is “suppressed; also recorded: inhibits”.
